B1: bms1.pk0023.g8: maize class I GST enzyme encoded by cDNA clone, expressed in E. coli (protein)
chain: MAPPMKVYGWAVSPWMARALVCLEEAGADYEIVPMSRCGGDHRRPEHLAKNPFGEIPVLEDGDLTLYQSRAIARYVLRKLKPELLREGDLEGSAMVDAWMEVEAHHMEPALWPIIRHSIIGQYVGRERDHQAVIDENLDRLRKVLPAYEARLSVCKYLVGDDISAADLCHFGFMRYFMATEYAGLVDAYPHVKAWWDALLARPSVQKVMAGMPPDFGYASGNIP
B2: m.15.5.d06.sk20: maize class II GST enzyme encoded by cDNA clone, expressed in E. coli (protein)
chain: MAEVEATVGRLMLYSYWRSSCSHRARIALNLKGVDYEYKAVNLLKGEQSDPEFVKLNPMKFVPALVDGSSVIGDSYAITLYLEDKYPEPPLLPQDLQKKALNHQIASIVASGIQPLHNLTVLRFIDQKVGAGESVLWTQQQIERGFTAIENLIQLKGCAGKYATGDEVQLADVFLAPQIYAAIERTKIDMSNYLTLARLHSEYMSHPAFEAALPGKQPDAPSSS
B3: ceb5.pk0049.a11: maize class III GST enzyme encoded by cDNA clone, expressed in E. coli (protein)
chain: MAEEKKQGLQLLDFWVSPFGQRCRIALDEKGLAYEYLEQDLRNKSELLLRANPVHKKIPVLLHDGRPVCESLVIVQYLDEAFPEAAPALLPADPYARAQARFWADYVDKKLYDCGTRLWKLKGDGQAQARAEMVEILRTLEGALGDGPFFGGDALGFVDVALVPFTSWFLAYDRFGGVSVEKECPRLAAWAKRCAERPSVAKNLYPPEKVYDFVCGMKKRLGIE
B4: ceb1.pk0017.a5: maize class I GST enzyme encoded by cDNA clone, expressed in E. coli (protein)
chain: MAAPVTVYGPMLSPAVARVAACLLEKDVPFQIEPVDMSKGEHKSPSFLKLQPFGQVPAFKDHLTTVFESRAICRYICDQYADSGNQALFGKKEDGAVGRAAIEQWIESEGQSFNPPSLAIIFQLAFAPMMGRTTDLAVVEQNEAKLAKVLDVYDQRLGESQYFAGDDFSPGRPCALAQCRFPCEQNQQGWLDHREKESC
B5: ceb5.pk0051.f8: maize class III GST enzyme encoded by cDNA clone, expressed in E. coli (protein)
chain: MAGETKKGLVLLDFWVSPFGQRCRIALAEKGIAYEYSEQELLGGAKSDILLRSNPVHKKIPVLLHDGRPVCESLVILEYLEEAFPEASPRLLPDAAYARAQARFWAAYSDKVYKAGTRLWKLRGDARAQARAEIVQVVRNLDGELGDKAFFGGEAFGFVDVALVPFVPWLPSYERYGDFSVAEIAPRLAAWARRCAQRESVARTLHPPEKVDEFINLLKKTYGIE
B6: cs1.pk0010.c5: maize class I GST enzyme encoded by cDNA clone, expressed in E. coli (protein)
chain: MAAGLQVFGQPASTDVARVLTCLFEKKLEFELVRIDTFKTHHRLPEFIRLRDPNGQVTFKHGDKTLVDSRDICRYVCNQFPNYGNKSLYGSGALERASIEQWLQAEAQNFGPPSSALVFQLAFVPHLSHLGVRQDPAVIAENEDKLKQVLDVYDEILSKNEYLAGDEFTLADLSHLPNSHYIVNTERGRKLFTNKKNVAKWYDRLSKRETWVQVVKMQKEHPGAFK

Tests used:
Type in all cases: biochemical
Conditions in all cases: purified enzyme, 0.4 mM electrophilic substrate, 4 mM glutathione, 0.1 M MOPS pH 7.0
[1] = GST conjugation of chlorimuron ethyl with glutathione (HPLC)
Source text: (§1) The GST enzymes, expressed and purified as described in Example 5 were screened for their ability to metabolize a variety of substrates. Substrates tested included the three herbicide electrophilic substrates chlorimuron ethyl, alachlor, and Atrazine, and four model electrophilic substrates, 1-chloro-2,4-dinitrobenzene (CDNB), ethacrynic acid, t-stilbene oxide, and 1,2-epoxy-3-(p-nitrophenoxy)propane. The enzymes were purified as described in Example 5 and used in the following assay.
(§2) For each enzyme, the conjugation reaction with each electrophilic substrate was performed by incubating 0.3 to 30 μg enzyme in 0.1 M MOPS (pH 7.0) containing 0.4 mM of the electrophilic substrate. The reaction was inititated by the addition of glutathione to a final concentration of 4 mM. After 5 to 30 min, the reaction was terminated by the addition of 45 μL acetonitrile, microfuged for 10 min to remove precipitated protein, and then the supernatent was removed and added to 65 μl of water. This sample was chromatographed on a Zorbax C8 reverse phase HPLC column (3 μm particle size, 6.2 mm×8 cm) using a combination of linear gradients (flow=1.5 mL/min) of 1% H3 PO4 in water (solvent A) and 1% H3 PO4 in acetonitrile. The gradient started with 5% solvent B, progressing from 5% to 75% solvent B between 1 and 10 min, and from 75% to 95% solvent B between 10 and 12 min. Control reactions without enzyme were performed to correct for uncatalyzed reaction. Quantitation of metabolites were based on an assumption that the extinction coefficient of the conjugate was identical to that of the electrophilic substrate.

[2] = GST conjugation of alachlor with glutathione (HPLC)
Source text: as §1, §2

[3] = GST conjugation of Atrazine with glutathione (HPLC)
Source text: as §1, §2

[4] = GST conjugation of CDNB with glutathione (HPLC)
Source text: as §1, §2

[5] = GST conjugation of ethacrynic acid with glutathione (HPLC)
Source text: as §1, §2

[6] = GST conjugation of t-stilbene oxide with glutathione (HPLC)
Source text: as §1, §2

[7] = GST conjugation of 1,2-epoxy-3-(p-nitrophenoxy)propane with glutathione (HPLC)
Source text: as §1, §2

| Molecule | activity of enzyme with Chlorimuron-Ethyl [1] [nmol/min/mg] | activity of enzyme with Alachlor [2] [nmol/min/mg] | activity of enzyme with Atrazine [3] [nmol/min/mg] | activity of enzyme with CDNB [4] [nmol/min/mg] | activity of enzyme with Ethacrynic Acid [5] [nmol/min/mg] | activity of enzyme with t-Stilbene Oxide [6] [nmol/min/mg] | activity of enzyme with 1,2-epoxy-3-(p-nitrophenoxy)propane [7] [nmol/min/mg] |
| --- | --- | --- | --- | --- | --- | --- | --- |
| B1 | 0.2 | 0 | 0.00 | 15 | 13 | 0.00 | 0 |
| B2 | 0.1 | 0 | 0.00 | 45 | 17 | 0.00 | 1 |
| B3 | 0.4 | 18 | 0.01 | 3939 | 102 | 0.01 | 30 |
| B4 | 0.1 | 0 | 0.00 | 15 | 5 | 0.00 | 0 |
| B5 | 1.9 | 27 | 0.08 | 2136 | 117 | 0.02 | 14 |
| B6 | 0.1 | 0 | 0.00 | 30 | 9 | 0.00 | 0 |

Source: patent US6096504A, “Maize glutathione-S-transferase enzymes” (E. I. du Pont Nemours and Company, priority 1999, dated 2000)
